Source: US20200270588A1, “GLUCOSYL TRANSFERASE POLYPEPTIDES AND METHODS OF USE” (Syngenta Participations AG, priority 2017, published 2020)

Assays:
[1] = system: CN1CC(O)N(c2cc(C(F)(F)F)ccn2)C1=O; test: UDP-Glo glucosyl transferase assay, purified enzyme; format: biochemical, Zea mays; conditions: other: DMSO reagent blank as control, pH 7.5
[2] = system: CON1C(=O)N(c2cc(C(F)(F)F)c(Cl)cn2)C(O)C1C; test: as above; format: biochemical, Zea mays; conditions: other: control = inactive H24A mutant of bx9 (asterisk), pH 7.5
[3] = system: Cc1cnc(N2C(=O)N(C)CC2O)cc1C(F)(F)F; test: as above; format: biochemical, Zea mays; conditions: other: control = inactive H24A mutant of bx9 (asterisk), pH 7.5
[4] = system: CN1CC(O)N(c2cc(C(F)(F)F)c(Cl)cn2)C1=O; test: as above; format: biochemical, Zea mays; conditions: other: control = inactive H24A mutant of bx9 (asterisk), pH 7.5
[5] = LC/MS plate assay of crude E. coli extracts, Zea mays bx8 derivatives, herbicide V; format: biochemical; conditions: for activity with herbicide V: LC/MS; for activity relative to like-expressed Zea mays bx9 w/t extract: herbicide V, LC/MS peaks, estimate
Experimental: In an alternative method for assaying the various enzymes, the test glucosyl transferase enzyme is reacted with substrates exactly as above except that the assay is stopped by adding an equal volume of acetonitrile. Alternatively 50 or 100 μl samples from assay reactions are added to 500 μl ethyl acetate to stop the reaction. In this case samples are then vortexed and 400 μl of the ethyl acetate partition removed, dried down, and resuspended in 100 μl 80:20 acetonitrile/water. The formation of product gluco side and/or disappearance of substrate test herbicide is then monitored directly by LC/MS. Samples are analyzed by LC-MS using an Agilent 1290 liquid chromatography system and Thermo Q-Exactive mass spectrometer. The chromatography is achieved on a Waters Acquity C18 BEH (50×2.1 mm) 1.7 μm particle size column, using a 6 minute gradient run of Water (0.2% formic acid) and Acetonitrile. The Q-Exactive is operated in positive ionisation electrospray mode, using Full scan-AIF mode, at 35,000 resolution, between 100-800 m/z. All analytes are identified from the full scan data to within at least 5 ppm accuracy of their predicted pseudo-molecular ion [M+H]^+ m/z value. In order to obtain quantitative data standard curves are run using herbicides and herbicide glucosides synthesized as standards. Where these synthetic glucosides were not available the LC/MS assay could only be used to provide relative data.
The glucosyl transferase activities of the mutant bx8-derived polypeptides expressed in these strains were initially assayed versus herbicide V as described in Example 1. The partly purified C-terminally his tagged w/t bx8 enzyme (SEQ ID No: 2) catalyzed glucosyl transfer to herbicide V at a low rate estimated to be less than about 0.002/s at 1 mM herbicide V which, because of a relatively high background of UDP formation in the DMSO (no substrate reagent control) was difficult to quantify using the luminescence assay. Thus further assays were run by LC/MS using which technique the formation of an O-beta glucosyl glucoside of herbicide V could more easily be confirmed but only quantified in a relative sense. Thus the various derivatives of C-terminally his tagged Zea mays bx8 SEQ ID No:2 were cloned and expressed in E. coli BL21 (DE3) as described in Example 1 and assayed in plates as crude extracts, as in Example 2, but monitored by LCMS rather than the luminescence assay.
The different stereoisomer standards chromatographed distinctly on LC (FIGS. 8A-8H). By comparing the LC elution profiles of the standards with the enzyme products at the correct mass it was possible to characterize which polypeptides catalyzed the formation of which O-glucosides. Assay samples and glucoside conjugate standards are run using the identical chromatographic conditions to allow us to identify the conjugate isomer formed in the assay. In short, as would be expected for inverting glucosyl transferases all of the bx enzymes tested produced beta glucoside products (from the alpha-UDP-glucose substrate) from all herbicides tested. But there can be subtle variations between enzymes in stereochemistry of the products made at other chiral centers.

Molecule: SEQ ID NO 21, mutant of Zea mays bx9 glucosyl transferase (Zea mays; A334K/F21Y/L194V/M279F/S117V)
- Km [1]: 57.3 µM
- kcat [1]: 1.86 s⁻¹
- kcat/Km [1]: 32500 M⁻¹ s⁻¹

Molecule: SEQ ID NO 22, mutant of Zea mays bx9 glucosyl transferase (Zea mays; A334K/F21Y/M279F/S117V/T220P)
- Km [2]: 20 µM
- kcat [2]: 1.68 s⁻¹
- kcat/Km [2]: 68900 M⁻¹ s⁻¹
- Km [3]: 200 µM
- kcat [3]: 1.16 s⁻¹
- kcat/Km [3]: 5950 M⁻¹ s⁻¹
- Km [4]: 320 µM
- kcat [4]: 0.8 s⁻¹
- kcat/Km [4]: 2500 M⁻¹ s⁻¹
- Km [1]: 14.7 µM
- kcat [1]: 1.32 s⁻¹
- kcat/Km [1]: 89700 M⁻¹ s⁻¹

B1: V367I, I374V: double mutant of Zea mays bx8 (protein)
chain: MAASCGGRVVVFPFPFQGHFNPVMRLARALHARGVGITVFHTAGARAPDPADYPADYRFVPVPVEVAPELMASEDIAAIVTALNAACEAPFRDRLSALLSAADGEAGEAGGRVRCVLTDVSWDAVLSAARGLGVPALGVMTASAATFRVYMAYRTLVDKGYLPVREERKDDAVAELPPYRVKDLLRHETCDLEEFADLLGRVIAAARLSSGLIFHTFPFIEAGTLGEIRDDMSVPVYAVAPLNKLVPAATASLHGEVQADRGCLRWLDAQRARSVLYVSFGSMAAMDPHEFVELAWGLADAGRPFVWVVRPNLIRGFESGALPDGVEDRVRGRGVVVSWAPQEEVLAHPAVGGFFTHCGWNSTVEAISEGVPMVCHPRHGDQYGNARYVCHVWKVGTEVAGDQLERGEIKAAIDRLMGGSEEGEGIRKRMNELKIAADKGIDESAGSDLTNLVHLINSY
modifications: Mutated Zea mays Bx8 protein sequence
- activity with herbicide V [5]: detectable activity

B2: A246T, E256V: double mutant of Zea mays bx8, printed A248T, E256V in b223 (protein)
chain: MAASCGGRVVVFPFPFQGHFNPVMRLARALHARGVGITVFHTAGARAPDPADYPADYRFVPVPVEVAPELMASEDIAAIVTALNAACEAPFRDRLSALLSAADGEAGEAGGRVRCVLTDVSWDAVLSAARGLGVPALGVMTASAATFRVYMAYRTLVDKGYLPVREERKDDAVAELPPYRVKDLLRHETCDLEEFADLLGRVIAAARLSSGLIFHTFPFIEAGTLGEIRDDMSVPVYAVAPLNKLVPTATASLHGVVQADRGCLRWLDAQRARSVLYVSFGSMAAMDPHEFVELAWGLADAGRPFVWVVRPNLIRGFESGALPDGVEDRVRGRGVVVSWAPQEEVLAHPAVGGFFTHCGWNSTVEAVSEGVPMICHPRHGDQYGNARYVCHVWKVGTEVAGDQLERGEIKAAIDRLMGGSEEGEGIRKRMNELKIAADKGIDESAGSDLTNLVHLINSY
modifications: Mutated Zea mays Bx8 protein sequence
notes: double mutant of Zea mays bx8, printed A248T, E256V
- activity with herbicide V [5]: detectable activity

B3: V367I, H376C: double mutant of Zea mays bx8 (protein)
chain: MAASCGGRVVVFPFPFQGHFNPVMRLARALHARGVGITVFHTAGARAPDPADYPADYRFVPVPVEVAPELMASEDIAAIVTALNAACEAPFRDRLSALLSAADGEAGEAGGRVRCVLTDVSWDAVLSAARGLGVPALGVMTASAATFRVYMAYRTLVDKGYLPVREERKDDAVAELPPYRVKDLLRHETCDLEEFADLLGRVIAAARLSSGLIFHTFPFIEAGTLGEIRDDMSVPVYAVAPLNKLVPAATASLHGEVQADRGCLRWLDAQRARSVLYVSFGSMAAMDPHEFVELAWGLADAGRPFVWVVRPNLIRGFESGALPDGVEDRVRGRGVVVSWAPQEEVLAHPAVGGFFTHCGWNSTVEAISEGVPMICCPRHGDQYGNARYVCHVWKVGTEVAGDQLERGEIKAAIDRLMGGSEEGEGIRKRMNELKIAADKGIDESAGSDLTNLVHLINSY
modifications: Mutated Zea mays Bx8 protein sequence
- activity with herbicide V [5]: detectable activity

B4: E256V, R265Q: double mutant of Zea mays bx8 (protein)
chain: MAASCGGRVVVFPFPFQGHFNPVMRLARALHARGVGITVFHTAGARAPDPADYPADYRFVPVPVEVAPELMASEDIAAIVTALNAACEAPFRDRLSALLSAADGEAGEAGGRVRCVLTDVSWDAVLSAARGLGVPALGVMTASAATFRVYMAYRTLVDKGYLPVREERKDDAVAELPPYRVKDLLRHETCDLEEFADLLGRVIAAARLSSGLIFHTFPFIEAGTLGEIRDDMSVPVYAVAPLNKLVPAATASLHGVVQADRGCLQWLDAQRARSVLYVSFGSMAAMDPHEFVELAWGLADAGRPFVWVVRPNLIRGFESGALPDGVEDRVRGRGVVVSWAPQEEVLAHPAVGGFFTHCGWNSTVEAVSEGVPMICHPRHGDQYGNARYVCHVWKVGTEVAGDQLERGEIKAAIDRLMGGSEEGEGIRKRMNELKIAADKGIDESAGSDLTNLVHLINSY
modifications: Mutated Zea mays Bx8 protein sequence
- activity with herbicide V [5]: detectable activity

B5: D170E, A72P, A174P: triple mutant of Zea mays bx8 (protein)
chain: MAASCGGRVVVFPFPFQGHFNPVMRLARALHARGVGITVFHTAGARAPDPADYPADYRFVPVPVEVAPELMPSEDIAAIVTALNAACEAPFRDRLSALLSAADGEAGEAGGRVRCVLTDVSWDAVLSAARGLGVPALGVMTASAATFRVYMAYRTLVDKGYLPVREERKEDAVPELPPYRVKDLLRHETCDLEEFADLLGRVIAAARLSSGLIFHTFPFIEAGTLGEIRDDMSVPVYAVAPLNKLVPAATASLHGEVQADRGCLRWLDAQRARSVLYVSFGSMAAMDPHEFVELAWGLADAGRPFVWVVRPNLIRGFESGALPDGVEDRVRGRGVVVSWAPQEEVLAHPAVGGFFTHCGWNSTVEAVSEGVPMICHPRHGDQYGNARYVCHVWKVGTEVAGDQLERGEIKAAIDRLMGGSEEGEGIRKRMNELKIAADKGIDESAGSDLTNLVHLINSY
modifications: Mutated Zea mays Bx8 protein sequence
- activity with herbicide V [5]: detectable activity

B6: SEQ ID NO: 50: zmBX8/zmBX9 hybrid polypeptide (protein)
chain: MAASCGGRVVVFPFPFQGHFNPVMRLARALHARGVGITVFHTAGARAPDPADYPADYRFVPVPVEVAPELMASEDIAAIVTALNAACEAPFRDRLSALLSAADGEAGEAGGRVRCVLTDVSWDAVLSAARGLGVPALGVMTASAATFRVYMAYRTLVDKGYLPVREERKDDAVAELPPYRVKDLLRHETCDLEEFADLLGRVIAAARLSSGLIFHTFPFIEAGTLGEIRDDMSVPVYAVAPLNKLVPAATASLHGEVQADRGCLRWLDAQRARSVLYVSFGSMAAMDPHEFVELAWGLADAGRPFVWVVRPNLIRGFESGALPDGVEDRVRGRGVVVSWAPQEEVLAHPAVGGFFTHCGWNSTVEAISEGVPMVCCPRHGDQFGNMRYVCDVWKVGTELVGEQLERGQVKAAIDRLFGTKEGEEIKERMKEFKIAAAKGIGIGVDVDETASPRTDLTDLVDLIKSF
modifications: Hybrid sequence between Zea mays Bx8 and Bx9 sequences
notes: zmBX8/zmBX9 hybrid polypeptide
- activity with herbicide V [5]: active
- activity relative to like-expressed Zea mays bx9 w/t extract [5]: about a third to a half
- activity relative to like-expressed Zea mays bx9 w/t extract ([5]; listed as 50): up to about half

B7: SEQ ID NO: 51: zmBX8/zmBX9 hybrid polypeptide (bx8/bx9 hybrid 2) (protein)
chain: MAASCGGRVVVFPFPFQGHFNPVMRLARALHARGVGITVFHTAGARAPDPADYPADYRFVPVPVEVAPELMASEDIAAIVTALNAACEAPFRDRLSALLSAADGEAGEAGGRVRCVLTDVSWDAVLSAARGLGVPALGVMTASAATFRVYMAYRTLVDKGYLPVREERKDDAVAELPPYRVKDLLRHETCDLEEFADLLGRVIAAARLSSGLIFHTFPFIEAGTLGEIRDDMSVPVYAVAPLNKLVPAATASLHGEVQADRGCLRWLDAQRARSVLYVSFGSMAAMDPHEFVELAWGLADAGRPFVWVVRPNLIRGFESGALPDGVEDRVRGRGVVVSWAPQEEVLAHPAVGGFFTHCGWNSTVEAVSEGVPMICHPRHGDQFGNMRYVCDVWKVGTELVGEQLERGQVKAAIDRLFGTKEGEEIKERMKEFKIAAAKGIGIGVDVDETASPRTDLTDLVDLIKSF
modifications: Hybrid sequence between Zea mays Bx8 and Bx9 sequences
- activity with herbicide V [5]: active
